One may read the Kd as the equilibrium constant for the complex coming apart. One may read the koff as the first-order rate constant of dissociation. Lower therefore signals a long-lived complex. For orientation: kon means the rate constant with which the complex forms. A lower kon goes with slow association.

“And” between values parts separate entries of the source, which are not always exact repeats. Identical values can stand only once. Like-named read-outs stand apart in the source and are kept apart here. Ends that are not written are not given here. * marks the point of attachment. Palmitoyl = CCCCCCCCCCCCCCCC(=O)*

Results on 18 molecules are retold here after patent publication US20240024520A1 (UCB, published 2024).

Test [1] addresses T1, human complement component C5 (human, UniProt P01031 19-673; P01031 678-1676).
T1 construct: mature; Mature C5 is a disulphide-linked beta and alpha chain cut from one precursor; Terbium-labelled in the FRET assays, biotinylated in part of the phage ELISA; also called human C5; C5-Tb
In words: SPR multi-cycle kinetics, human C5 immobilised, mean of n=3.

Test [2] deals with T1, human complement component C5. In words: SPR (Biacore), C5, mean of n=3. In general terms: In SPR one partner is held on a chip, and binding of the other changes the refractive index at the surface.
A further test concerns the target rat serum albumin (rat, UniProt P02770 25-608). The test is described as follows: monoclonal phage ELISA. Background: ELISA stands for enzyme-linked immunosorbent assay.
Another test addresses T2, mouse serum albumin (mouse, UniProt P07724 25-608).
T2 construct: also called MSA
The test is described as follows: monoclonal phage ELISA.

In test [3] the target is T1, human complement component C5.
For test [4] the target is unchanged. This is another data set of the same source.
Test [5] has the same target. In words: cell-based or functional assay.
For test [6] the target is unchanged. The test is described as follows: cell-based or functional assay. The source holds these as a separate data set.
Test [7] shares this target. The test is described as follows: SPR single-cycle kinetics, human C5, n=1.

rat serum albumin, sequence (P02770 25-608 limits assumed): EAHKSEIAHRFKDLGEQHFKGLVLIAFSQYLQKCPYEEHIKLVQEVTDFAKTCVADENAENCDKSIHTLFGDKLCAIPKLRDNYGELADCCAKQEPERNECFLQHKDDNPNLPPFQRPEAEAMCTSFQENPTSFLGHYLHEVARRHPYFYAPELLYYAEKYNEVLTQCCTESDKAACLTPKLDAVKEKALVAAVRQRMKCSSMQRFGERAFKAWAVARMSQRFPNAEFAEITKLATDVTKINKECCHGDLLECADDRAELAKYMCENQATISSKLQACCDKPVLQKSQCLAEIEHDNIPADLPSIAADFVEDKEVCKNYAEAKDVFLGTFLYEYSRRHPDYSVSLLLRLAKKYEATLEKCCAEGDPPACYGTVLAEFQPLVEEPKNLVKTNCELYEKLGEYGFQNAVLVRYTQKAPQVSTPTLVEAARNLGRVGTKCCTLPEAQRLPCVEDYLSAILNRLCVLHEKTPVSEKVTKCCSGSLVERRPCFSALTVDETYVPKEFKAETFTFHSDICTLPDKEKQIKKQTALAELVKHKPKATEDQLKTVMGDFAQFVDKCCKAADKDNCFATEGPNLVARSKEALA
T1 sequence (P01031 19-673 limits assumed, chain 1 of 2): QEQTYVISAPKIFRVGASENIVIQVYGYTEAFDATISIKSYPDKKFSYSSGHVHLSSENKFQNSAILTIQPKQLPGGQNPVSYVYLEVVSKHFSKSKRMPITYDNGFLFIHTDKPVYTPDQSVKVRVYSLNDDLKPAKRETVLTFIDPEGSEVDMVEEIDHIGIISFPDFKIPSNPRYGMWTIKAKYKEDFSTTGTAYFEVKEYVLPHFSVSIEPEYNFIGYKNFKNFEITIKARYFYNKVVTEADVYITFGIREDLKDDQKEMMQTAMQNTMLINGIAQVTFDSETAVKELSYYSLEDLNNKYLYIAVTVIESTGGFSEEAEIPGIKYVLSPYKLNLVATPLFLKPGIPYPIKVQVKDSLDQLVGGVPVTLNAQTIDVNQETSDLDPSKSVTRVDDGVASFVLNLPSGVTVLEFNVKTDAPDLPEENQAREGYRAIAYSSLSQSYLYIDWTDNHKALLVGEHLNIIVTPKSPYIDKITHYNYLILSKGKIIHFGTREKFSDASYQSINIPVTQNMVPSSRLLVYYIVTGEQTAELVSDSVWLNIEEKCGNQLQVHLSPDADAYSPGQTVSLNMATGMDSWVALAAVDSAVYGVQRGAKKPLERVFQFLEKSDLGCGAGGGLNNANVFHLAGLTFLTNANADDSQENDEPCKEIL
T1 sequence (P01031 678-1676 limits assumed, chain 2 of 2): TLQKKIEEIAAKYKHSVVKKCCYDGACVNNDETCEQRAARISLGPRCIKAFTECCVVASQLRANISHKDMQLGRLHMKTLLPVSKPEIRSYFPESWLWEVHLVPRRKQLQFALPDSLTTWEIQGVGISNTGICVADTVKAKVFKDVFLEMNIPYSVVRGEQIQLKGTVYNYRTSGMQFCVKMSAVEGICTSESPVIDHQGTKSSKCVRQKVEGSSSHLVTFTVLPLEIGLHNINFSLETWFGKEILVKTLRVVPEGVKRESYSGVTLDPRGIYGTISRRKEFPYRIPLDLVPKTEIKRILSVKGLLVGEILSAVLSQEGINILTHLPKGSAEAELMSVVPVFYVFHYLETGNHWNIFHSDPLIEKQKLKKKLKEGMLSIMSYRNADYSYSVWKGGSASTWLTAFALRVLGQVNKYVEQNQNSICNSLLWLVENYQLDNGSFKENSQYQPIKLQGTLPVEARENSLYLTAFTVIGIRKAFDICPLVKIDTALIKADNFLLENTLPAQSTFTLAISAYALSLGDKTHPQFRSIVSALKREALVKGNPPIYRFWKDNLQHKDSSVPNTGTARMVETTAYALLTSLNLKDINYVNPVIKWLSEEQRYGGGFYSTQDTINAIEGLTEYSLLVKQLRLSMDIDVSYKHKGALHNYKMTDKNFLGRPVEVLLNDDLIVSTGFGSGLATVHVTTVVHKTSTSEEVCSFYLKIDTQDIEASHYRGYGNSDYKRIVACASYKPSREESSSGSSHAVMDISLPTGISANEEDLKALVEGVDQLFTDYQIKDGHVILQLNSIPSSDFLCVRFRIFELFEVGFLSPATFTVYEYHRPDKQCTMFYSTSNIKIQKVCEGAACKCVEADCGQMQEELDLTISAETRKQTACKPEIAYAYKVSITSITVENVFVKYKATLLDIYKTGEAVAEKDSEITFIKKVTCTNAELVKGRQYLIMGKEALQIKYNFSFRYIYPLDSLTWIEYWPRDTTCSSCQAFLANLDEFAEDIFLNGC

B1: K57chemFE-Palmitoyl (peptide)
peptide: Palmitoyl-GCPPGYKSGVDCSPGSECKWGCYAVDGRRYGGYGADSGVGS
modifications: also: disulphides formed by free energy method, pairing not given here
In test [1], B1 gave a Kd of 9.52 nM, a koff of 0.000477 s⁻¹ and a kon of 51100 M⁻¹ s⁻¹.

B2: hC3nb1-K57 loop 3 with C-terminal single-chain Fc tag (bispecific antibody, not shown: a dimerising Fc or GST)
VHH: QVQLVETGGGLVQAGGSLRLSCAASGSIFSLNAMGWFRQAPGKEREFVATINRSGGRTYYADSVKGSGGGSGCPPGYKSGVDCSPGSECKWGCYAVDGRRYGGYGADSGVSGGGSRFTISRDNGKNMVYLQMHSLKPEDTAIYYCAAGTGWSPQTDNEYNYWGQGTQVTVSS
notes: also called hC3Nb1 Loop 3
Molecule B2 showed a Kd in test [2] of 0.596 nM.

B3: K57 ultralong CDR-H3-hC3nb1 (bispecific antibody, not shown: a dimerising Fc or GST)
VHH: TTVHQRTIKSGCPPGYKSGVDCSPGSECKWGCYAVDGRRYGGYGADSGVGSTYTHEFYVDAWGQGSSSSGSSSSGQVQLVETGGGLVQAGGSLRLSCAASGSIFSLNAMGWFRQAPGKEREFVATINRSGGRTYYADSVKGRFTISRDNGKNMVYLQMHSLKPEDTAIYYCAAGTGWSPQTDNEYNYWGQGTQVTVSS
notes: tied to the label 'hC3Nb1 N-Term' on that ground; also called hC3Nb1 N-Term
Turning to B3, the Kd in test [2] was 0.192 nM.

B4: hC3nb1-K57 loop 2 with C-terminal single-chain Fc tag (bispecific antibody, not shown: a dimerising Fc or GST)
VHH: QVQLVETGGGLVQAGGSLRLSCAASGSIFSLNAMGWFRQAPSGGGSGCPPGYKSGVDCSPGSECKWGCYAVDGRRYGGYGADSGVSGGGSKEREFVATINRSGGRTYYADSVKGRFTISRDNGKNMVYLQMHSLKPEDTAIYYCAAGTGWSPQTDNEYNYWGQGTQVTVSS
notes: also called hC3Nb1 Loop 2
For the molecule B4, the equilibrium dissociation constant (Kd) in test [2] was 0.321 nM. This Kd lies about 1.7-fold higher than the previous one.

B5: K8 chemFE cyclic (peptide)
peptide: cyclo(VCPDGFNWGYGCAAGSSRFCTRHDWCCYDERADSHTYGFCTGNRV)
modifications: also: disulphides formed by free energy method, pairing not given here
notes: Head-to-tail cyclised K8chemFE
Take B5: in [1], binding was put at a Kd of 28.5 nM, the off-rate constant (koff) is 0.00259 s⁻¹ and the kon came out at 94000 M⁻¹ s⁻¹.

B6: ultralong CDR-H3 of SEQ ID NO: 499 displayed on M13 phage (other)
chain: TTVHQQTQKHCPDDDTDRDGCSRPDSRGGSGCGSYGRYGDQGGACCPLTYEFDV
notes: not shown: poly-histidine, c-myc tag, M13 pIII
With B6, the binding result with rat serum albumin and with mouse serum albumin was “binds” in each case.

B7: ultralong CDR-H3 of SEQ ID NO: 506 displayed on M13 phage (other)
chain: TTVHQQTQERCPDDYTDRGGCSIPYNCGGSRCCAYGRNGGYGGVSCSRTYEFYVN
notes: as for B6
With B7, the binding result with rat serum albumin and with mouse serum albumin was “binds” each time.

B8: ultralong CDR-H3 of SEQ ID NO: 501 displayed on M13 phage (other)
chain: TTVHQQTQERCPDDYTDRGGCSIPYNCGGSRCCAYGRNGGYGGNTCSRTYELYVE
notes: as for B6
Regarding B8, the binding result with rat serum albumin and with mouse serum albumin was “binds” throughout.

B9: ultralong CDR-H3 of SEQ ID NO: 507 displayed on M13 phage (other)
chain: TTVHQQTQERCPDNYTDRGGCSIPYSCGDSRCCAYGRNGGYGGVSCSRTYEFYVN
notes: as for B6
Take B9: the binding result with rat serum albumin and with mouse serum albumin was “binds” each time.

B10: ultralong CDR-H3 of SEQ ID NO: 503 displayed on M13 phage (other)
chain: TTVHQQTQERCPDDYTDRGGCSIPYNCGGSRCCAYGRNGGYGGISCSRTYEWYVD
notes: as for B6
As for B10, the binding result in the test with rat serum albumin and with mouse serum albumin was “binds” in each case.

B11: ultralong CDR-H3 of SEQ ID NO: 508 displayed on M13 phage (other)
chain: TTVHQQTQERCPDNYTDRGGCSIPYTCGGSRCCAYGRNGGYGGVSCSRTYEFYVN
notes: as for B6
With B11, the binding result with rat serum albumin and in the test with mouse serum albumin was “binds” throughout.

B12: ultralong CDR-H3 of SEQ ID NO: 502 displayed on M13 phage (other)
chain: TTVHQQTQERCPDDYTDRGGCSIPYTCGGSRCCAYGRNGGYGGVSCSRTYEFYVN
notes: as for B6
For B12, the binding result with rat serum albumin and with mouse serum albumin was “binds” each time.

B13: ultralong CDR-H3 of SEQ ID NO: 500 displayed on M13 phage (other)
chain: TTVHQQTQERCPDDYTDRGGCSIPYNCGGSRCCAYGRNGGYGGISCSRTYEFYVN
notes: as for B6
With B13, the binding result in the test with rat serum albumin and with mouse serum albumin was “binds” in each case.

B14: ultralong CDR-H3 of SEQ ID NO: 505 displayed on M13 phage (other)
chain: TTVHQQTQERCPDDYTDRGGCSIPYNCGGSRCCAYGRYGDYGGISCSRTYEFYVN
notes: as for B6
In the case of B14, the binding result with rat serum albumin and with mouse serum albumin was “binds” throughout.

B15: ultralong CDR-H3 of SEQ ID NO: 504 displayed on M13 phage (other)
chain: TTVHQQTQERCPDDYTDRGGCSIPYSCGDSRCCAYGRNGGYGGVSCSRTYEFYVN
notes: as for B6
Take B15: the binding result with rat serum albumin and with mouse serum albumin was “binds” in each case.

B16: PGT121 Fab-K149 knob domain fusion protein (Fab)
heavy: QMQLQESGPGLVKPSETLSLTCSVSGASISDSYWSWIRRSPGKGLEWIGYVHKSGDTNYSPSLKSRVNLSLDTSKNQVSLSLVAATAADSGKYYCARTLHGRRIYGSENLYFQGSCPDGFSYRSWDDFCCPMVGRCLAPRNGSENLYFQGSEWFTYFYMDVWGNGTQVTVSSASTKGPSVFPLAPSSKSTSGGTAALGCLVKDYFPEPVTVSWNSGALTSGVHTFPAVLQSSGLYSLSSVVTVPSSSLGTQTYICNVNHKPSNTKVDKRVEPKSCDKTLEENLYFQGSGGSHHHHHHHHHH
light: QSVLTQPPDISVAPGETARISCGEKSLGSRAVQWYQHRAGQAPSLIIYNNQDRPSGIPERFSGSPDSPFGTTATLTITSVEAGDEADYYCHIWDSRVPTKWVFGGGTTLTVLGQPKAAPSVTLFPPSSEELQANKATLVCLISDFYPGAVTVAWKADSSPVKAGVETTTPSKQSNNKYAASSYLSLTPEQWKSHRSYSCQVTHEGSTVEKTVAPTECS
In [3], B16 displayed a Kd of 143 nM, a koff of 0.00162 s⁻¹ and a kon of 11300 M⁻¹ s⁻¹. Moreover, the Kd in [4] is 34.9 nM and 57.6 nM and 30.1 nM and 39.3 nM.

B17: K92 knob domain peptide, chemically synthesised, free energy method (Example 4) (peptide)
peptide: TCPEGWSECGVAIYGYECGRWGCGHFLNSGPNISPYVTTGS
modifications: disulfide (positions not given here); also: disulphides formed in glutathione redox buffer, pairing not given here
notes: Disulphides formed in glutathione redox buffer
On to B17, for which, in [5], the “Classical pathway C5b deposition ELISA, average Emax” value was -33.9% and the “Classical pathway C5b deposition ELISA, geomean IC50” value was determined as 6.6 nM. Besides, in test [6], the “Alternative pathway C5b neoepitope ELISA, average Emax” value came to 56.8% and the “Alternative pathway C5b neoepitope ELISA, geomean IC50” value came out at 46.2 nM. In [7], this molecule showed a Kd of 0.643 nM, a koff of 0.000103 s⁻¹ and an on-rate constant (kon) of 160000 M⁻¹ s⁻¹.

B18: ultralong CDR-H3 of SEQ ID NO: 497 displayed on M13 phage (other)
chain: TTVHQKTTRQTSCPDGYIAGDSSCYRWRCRGNNCCKYGENRLLNYYDYTCVPYRDTYEWYVD
notes: as for B6
Consider B18, for which the binding result in the test with mouse serum albumin is recorded as “binds”.
